This series deals with T1, TATA-binding protein (TBP) (UniProt P13393 P13393:1-240).
T1 sequence: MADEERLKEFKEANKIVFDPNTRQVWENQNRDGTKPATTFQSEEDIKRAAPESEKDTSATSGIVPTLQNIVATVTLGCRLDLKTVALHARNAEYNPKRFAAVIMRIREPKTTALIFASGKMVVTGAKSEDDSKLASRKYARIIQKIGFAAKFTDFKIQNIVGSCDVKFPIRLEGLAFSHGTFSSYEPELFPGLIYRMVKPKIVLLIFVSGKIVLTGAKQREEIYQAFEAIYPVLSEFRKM
As to the kind of experiment: fluorescence microscopy of TBP in sol-gel; binding buffer 25 mM Tris pH 8, 100 mM NaCl, 25 mM KCl, 10 mM MgCl2. Particulars: tags: His-tag, full length, expressed in E. coli BL21-DE3; label: 5'-Cy3 on top strand. The method, then:
Sol-gels with TBP were enclosed with the PDMS lid. After encapsulation, the channels were washed extensively with the PBS buffer (binding buffer) by connecting one end of the main channel to a syringe pump (Pump 11, Harvard Apparatus, Holliston, Mass.). Following the pre-washing step, the silicate gel spot was blocked for 1 hour with 1× binding buffer that contained 25 mM Tris-Cl (pH 8), 100 mM NaCl, 25 mM KCl and 10 mM MgCl₂ with 5% skim milk. The blocking buffer works as a nonspecific competitor in the reaction mixture, which helps to achieve the selection of high-affinity molecules. […] After binding, the interaction of immobilized TBP proteins and Cy-3 labeled TATA DNA was monitored by fluorescence microscopy.
The Cy-3-labeled TATA DNA has a high affinity for TBP similar to that of the conventionally selected aptamers. […] The measured melting point of TATA DNA was 72° C. […] The fluorescence intensity of the sol-gel except for the negative sol-gel was detected under the fluorescent microscope (FIG. 6).

B1: TATA DNA (dsDNA)
DNA 1: GGGAATTCGGGCTATAAAAGGGGGATCCGG
DNA 2: CCGGATCCCCCTTTTATAGCCCGAATTCCC
As for B1, the binding result is “binds”.
